B1: Junin virus (JUNV) Z protein (natural protein)
chain: MGNCNGASKSNQPDSSRVTQPAAEFRRVAHSSLYGRYNCKCCWFADTNLITCNDHYLCLRCHQVMLRNSDLCNICWKPLPTTITVPVEPTAPPP

Biological target: Junin virus (JUNV) L protein (Junin virus (JUNV))
Test: MST; […] (20–[…]); […]; 50 mM HEPES pH 7.8, 500 mM NaCl, 1 mM TCEP; […]

**Q.** With Z (AA 18–47) peptide of JUNV Z protein as the molecule, how does the Kd read?
**A.** 863 nM

**Q.** Which Kd does the source give for Z (AA 48–78) peptide of JUNV Z protein here?
**A.** 1150 nM

**Q.** With B1 as the molecule, how does the Kd read?
**A.** 393 nM

Reference: PMC8257661
